Source: the DeepSol protein solubility set

Experiment: soluble on expression in E. coli; label from the status in PepcDB or PDB records

Row | Sequence | soluble on expression in E. coli
1 | MILTTSRKPSQRTRSFARDLERTLNIPYVQRGKLSLKEIFEIDKHVLLIGEFKANPGTLVVYDVENEKRLSSFISVKLQREICGEKIYNDDGIRIKISRELKDNEEFQKYYEIYDEFLFQHLNINEDSDITLRLEKDPKYLFAIQFYKGRVKIGPLIRIKSIKLFDSLLLEHHHHHH | soluble
2 | MTPYNEREVLKLLQEESTQRKGFELIVAQYSEQLYWQIRRMVLSHEDANDLLQNTFIKAWTNIDYFRAEAKLSTWLYRIALNECLTFLNRQRATTTVAIDDPEAAIVQKLESDPYYSGDQVQMLLQKALLTLPEKQRMVFNLKYYQEMKYEEMSEIFGTSVGALKASYHHAVKKIEKFLEEVD | not soluble
3 | MSLTTLNIGLILPDVLGTYGDDGNALVLRQRARMRGINAEIQRVTLDDAVPSTLDLYCLGGGEDTAQILATEHLTKDGGLQTAAAAGRPIFAVCAGLQVLGDSFRAAGRVIDGLGLIDATTVSLQKRAIGEVETTPTRAGFTAELTERLTGFENHMGATLLGPDAEPLGRVVRGEGNTDVWAASENTDDQRQQFAEGAVQGSIIATYMHGPALARNPQLADLMLAKAMGVALKEGHHHHHH | not soluble
4 | MNPEKNLYPYTQESSLEQALNFEIAQVWHTRSEGTYRSFDKTHIYWCSLKHPEHQKAVVIVNGRIESAWKYQELCYDLFRQGFDVYTYDHRGQGRSERLTEDRQIGHVHEFQDYVTDLKALVEHFDLGHYQERFLLAHSMGGAIATRYIQTTPAHPFSALALSAPMFGVNMPWYLRPWALLITQIMAAVTLKPSYAPGYGPYHAKPFHLNLLTHSETRYQLFRELYEAHPELQIGGPSHRWVWQSLMATKQCLQLTRQIKIPMLILQAGEEAIVCNRAQIRLFKKLSRTQKRAALCRIAGARHELLFEQDAYRNQTLDHILRFFADSTIDHKRQHHRP | not soluble
5 | LTNRGLKQVGWYLPAAQKTKKTAIVVHGFTNDKEDMKPYAMLFHDLGYNVLMPDNEAHGESEGNLIGYGWNDRLNVMAWTDQLIKENPESQITLFGLSMGAATVMMASGERLPAQVTSLIEDCGYASVWDELKFQAKAMYNLPAFPLLYEVSALSKIRAGFSYGEASSVKQLAKNKRPTLFIHGDKDDFVPTKMVYDNYKATKGPKEILIVKGAKHAKSFETNPEQYQKKIAAFLKKVEK | not soluble
6 | MATQMRLTDTNLLEVLNSEEYSGVLKEFREQRYSKKAILYTPNTERNLVFLVKSGRVRVYLAYEDKEFTLAILEAGDIFCTHTRAFIQAMEDTTILYTDIRNFQNIVVEFPAFSLNMVKVLGDLLKLLLTIINGLVFKDARLRLAEFLVQAAMDTGLKVPQGIKLELGLNTEEIALMLGTTRQTVSVLLNDFKKMGILERVNQRTLLLKDLQKLKEFSSGV | soluble
7 | MMMDLNIRRVVLDVDKGLNRPTLVELAAAIEKVQGVEAVNIIVTEMDMETMGTNITVEGTNINYDELIETIENTGSAIHSVDEIAVGKRLIENVRRNQN | soluble
8 | MELGLYTFADVNPNPADGRGPEGARRLRELLEEIELADQVGLDVFGLGEHHRPDYVVSSPSTVLAAAAVKTKNIRLTSAVSVLSSDDPVRVFQQFSTVDLLSNGRAEIMAGRGSFIESYPLFGYDLEDYDVLFAEKLDLLLALREQEVVTWSGTKHPAINGRGVYPRPLQERLPVWIAVGGTPQSVARAGAMGLPVALAIIGGEYRRFAPLFDLYHEAARRAGQEKTKLRTSINVHGFIADTTDKAADQFYGPQAEVMNRIGRERGWGPTNRAHFDAARGPEGNLFLGEPELVAEKIIKAHGVFKNDRFLLQMAIGLMPHDQIMRGIELYGTKVAPLVRKELTGSADPVKATA | soluble
9 | MKIAFIGEAVSGFGGMETVISNVIHTFENSSPKINCEMFFFCRNDKMDKAWLKEIKYAQSFSNIKLSFLRRAKHVYNFSQWLKETSPDIVICIDVISCLYANKARKKSGKHFTIFSWPHFSLDHKKHAECITYADYHLAISSGIKEQIMARGISAQDISVVYNPVSIKTVIVPPPERDKPAVFLYVGRLKFEGQKRVKDLFDGLARTTGEWQLHIIGDGSDFEKCQAYSRELGIEQRVIWYGWQSAPWQVVQQKIKNVTALLLTSAFEGFPMTLLEAMSYGIPCISSDCMSGPRDMIKPGLNGELYTPGAIDDFVGHLNRVISGEVKYQHDIIPGTIERFYDVLYFKNFNNAIFSKLQK | not soluble
10 | DNYVGGIPLTSAHSGTVSGGVYCDSYYGMGDQEAKASNTIEKTFTVPDNANVEWAMLLTNVYCGHMQNNYQGKAKVDFNGKNLGTETLNVPYTYSYNGGNGHVQVNDHVNRVTSDYMMYYDVTGLVKAGKNTAVVKTDPLDSSFDGRIRLVTLVVAYNDGSKKTIWYQVNRGHDADSYYSDDEMNENYIGSTAFQAALPEGSSLTDSKLTLVYQASSDGAYAFNGNALSSGTPQGTFSGSNTWDVKDSLKSSGTNTLTYDRTASFYKSVLGILTAEYTTSSSGDSTDDTPADNTTDNGSAGDTTDDISSDNTTNDTSSDNTTSDVPAGNTTNDTPADNTTDAKFSADLGVQAIKVSHNSAAKAWKNLVNTVNVTVINNGPEKAGSFALELYSEGSLLESKPINGLANGATEAVEFVWKPEDAKNYTLRAVVVPGSTINDANATNNELSKTQEVMHNGYIGDKPLETYLHGTVKGNIIYDYGNSSYVKVSSGDVYTAGHSLSLPEGAIVKYARLYNFWTWSATGSSGVIPSMSLDFAGSSLTPEAEYADQKGWGQYDYPTGTWAYNVTGLVSGSGNYITTVKNTNSDAENSFCIDGIALLVVYEDASGKETQYWINEGCDAVSTMSSSGGLTPDEATVKIAFAGDSIDLGNVDNARLWTTVQSGGHEGIALKFNEMSISGVYDSTPSSNLDIDEARDVTSYLLSQNNEAQIIAPSVTDNSGDYMIPSSAILAVSYKSETTDDTNITDDTNVTDDTNVTDGTNVTDDTNVTDGTNVTNDTNVTNDTNVTNDTNVTNDTNVTNDTNVTNDTNVTDDTNVTDGTNVTDGTNVTIDTNVTIDTNVTIDTNVTDNTNVTDDTNMKDDTNVTLKVNIIPVISLTVSPDSLDFGTVSPGTPSESLPLALKNNGGISIKVTAEVHDQENGPFATGLLLDQNIWSNYSKVLAAESAETSQAQLDLPL | not soluble
11 | MAKLVTENISKRFKNQDVLKHINITLENNEVYGLLGINGAGKTTLMKIICGILQQDSGEIKLDNRPMTRNDLHKVGSLIETPATYNHLSAQDNLKIVCLNESVDFSEINSVLSLVNLNVDKKKKVKDFSLGMKQRLGIAMALIKKPEILVLDEPSNGLDPYGIQELRELLKLLTEQGTSIIISSHILSEIQVLADHIGIIHEGELKYQQRNNKDENLEEIFFKITKGDYK | not soluble
12 | MGSDKIHHHHHHMNLQYVLLNDNSWQSQGEWQTPDTPFMSFAFWQALSDTGAIGEEAGWLPIYILVHRVESDDDFTVQQSLSSVEASIKVKQPVAVLPVFIKGHHRGEFVFDHSWAQAYAQYGLDYYPRLVTSAPYTPITGQRLWLAEGETLDAEIINTAIKGVDDIAQQVDASGWHGLFVTPEMATIATTLMPFNSHTRSAGQSHGVDSASNTSMNIASNTPVLERQGCQFLWQNKNLSQNDQLFADFEEFLATLKAKKRKTIRAERRKVAEQGITCQRKCGDEIIESDWKTFYHCYVMTYAVRGQQPYLSIDFFEALAQNMAEHVMLAQALDAGGEIIASSLFLYDKPDNKMATLYGRYWGALGEYDSLHFELCYYQGIEFAIEQGLHYFDPGTQGEHKLIRGFIPTTTHSLHRIYDARFVPAIADFCHKDRLHMAQYREQAFEALPFNIDNMPTFDNNE | not soluble
13 | MSLQESLQDRLAQVVELLHRHKVVEDLTHRQEGQHHDRVENLVHRQNLVELQRKLEELHPADIAHILESLPLDDRLTVWQLVKSEDDGDILLEVSDAVRETLIADMDDHEIIAATKDLDADELADLAPELPRDVVHELMESLDAQQRERVRSALSYEEDQVGALMDFEMVTIREDVSLEVVLRYLRRLKELPGHTDKLFVVDYDGVLKGVLPIKRLLVNDPDKQVLEVMATDPVTFHPDEDGYDAAQAFERYDLISAPVVDKGGKLIGRLTIDEMVDLIREESESEVLNMAGLREEEDIFASVWEGHHHHHH | soluble
14 | MKLAAKTFTPSTADLPFTDAGASEDSGMANKPGEPAFQLWLDVKKVVFPTTSEPSYVNLRLHNPTDKRITFKVRCTSAELFRVQPPIAFINAGATVNLVMWSANTHLQPEKKHYFAFYHKNASPSARQSPPLWKDGLKDAEGVRRIPVVFLPPSS | not soluble
15 | EGYEQDFAVLTAEITSKIARVPRLPPDEKKQMVANVEKQLEEARELLEQMDLEVREIPPQSRGMYSNRMRSYKQEMGKLETDFKRSRIA | soluble
16 | MSLSWEYEYYPHSLFCHHKEREGMHYIEGAYWSAEPDLPYLHKRKILMLVEDVWLLVDDIRCQGQHEALTQFILDKDVTYQDGKINQLRLWSEVDFDLEDTIISPKYNELERSSKLTKRQFFENQMLDYTIIAHESFEIIRHSVYQTDDREVENALAFEVKNDETDKLILLLSEDIRVGEKLCLVDGTKMRGKCLVYDKINERMIRLQCEGHHHHHH | soluble
17 | MSLRFVDDEGHYNVSFFHVNDVHAHLDQFASSGTSCDDPEKGCYGGYARIKTKVTELREQYPDNLWLNAGDEFQGTLFYTYYGGEKIAETLNELKFDAMTLGNHEWDGGDEALGQFLLNLTFPIVSCNVKSEVESLNETIKNYHIFEEHEIAVIGATTTTTPGISSVGNTTTFLDPVAEVQKAVWQIRNETEVNRIILLSHLGYEEDQDLAAKTEGISLIIGGHSHTLLGDMEDAKGDYPTMVEDLNGHEVFIVTAYRWGEYLGAIDLTFDDDGHALAYHGAPIHMDNSTSLDEELDTKIQGWAEAFADFAAEVLGETDAVLVQETCQEGDCLLGQVMADAMYEYRYNQTEGTDDEPALALINSGGVRAEINEGPITRGEVLTAFPFGNAIVELEFSGADLRKILEGAVSYVNQFNGDEITSWFQVSRGVRIEFNPDNEPGDRLVNVTIQGEAIDDERDYRVVTLDFLAGGGDSIFVATDDFITLDTQDEVLTQYIVARTPLSPELEERVVENDGEGHHHHHH | soluble
18 | MGSDKIHHHHHHMPTVHDLDTPSILIDAARAEANIARAQAHADKNGLKLRPHIKTHKLPYWAKKQVAAGAVGITCQKIGEAEVMTDAGLSDIFLPYNILGRAKLQRLKTLHGRVTLSVTSDSMETLEGLAATFTDAGHPLQVLVECDTGMGRCGVQTADQAVALARLIDKAGGLTFGGLMTYPAAGRAAEAEAWLANAKQALAASGLACERISSGGTPDMWRSGEDSVVTEYRPGTYIYLDRYQVAKGVGTLDDCALTVLATVVSHPTATRAILDSGSKALSSDTLGLKDFGELLGAPDARVTGLSEEHGTVTLSGDAKLRIGERVRVVPDHCCVVTNLFNEVNLIDGETVLETLPVAARGKMG | not soluble
19 | MGSNELFTRSVYMQSSVYSNNSKSSTSSSSSNSIPTQSAPAMNAASSPSKEPAKQEKEDDKKEVEEKKEIEKSVEAKVEGKVKAKVESTQNTDNSQELKAPEEKPKKKKKKKSNLIVSASVEKLSIVPEKEDFSILEKKLREFNFYHGFLPREDLHTTLHNPGDFLLRVSEVVEGEHKVNREVILSLIPVSTVSKDEEDRKKVRNVVIKRVTNLFFCEITRTFESISDLVTYYTKNPGGCASGTFQLKHPILQQSWEFMHSDVTVGKVLGEGAFGKVCSGTLKLKDGTNVDVAIKMTKVSAFLSKMKIKEMMNEARFIRNFNHKNVVRLYGVAHHEQPLYILLELVKGGSLQDHMKKEKGAVSIVEKIKFCSGAGRGIEYLHQNNCIHRDIAARNCLLHEKEVKITDFGLSRTGPVYKMKTACKLPVKWLAPETLSTLSFSFATDTYSWGVTCYEVFADGVEPFFGIQNSVVKTDILANKFLQMPPTTPESIKKYMEASIFVEGSRRATMTSAIAEFEKIKSALERPPSDMLSVGAGAKKVMKLLKRNKQEKYSKGD | not soluble
